Results on two molecules are retold here after publication PMC6174329, “Functional Characterization of Arabidopsis PHL4 in Plant Response to Phosphate Starvation”.

For series [1], the target named is T1, MBP-PHL4-His (Arabidopsis thaliana? (Columbia-0?), UniProt Q8GXC2 1-397).
T1 sequence: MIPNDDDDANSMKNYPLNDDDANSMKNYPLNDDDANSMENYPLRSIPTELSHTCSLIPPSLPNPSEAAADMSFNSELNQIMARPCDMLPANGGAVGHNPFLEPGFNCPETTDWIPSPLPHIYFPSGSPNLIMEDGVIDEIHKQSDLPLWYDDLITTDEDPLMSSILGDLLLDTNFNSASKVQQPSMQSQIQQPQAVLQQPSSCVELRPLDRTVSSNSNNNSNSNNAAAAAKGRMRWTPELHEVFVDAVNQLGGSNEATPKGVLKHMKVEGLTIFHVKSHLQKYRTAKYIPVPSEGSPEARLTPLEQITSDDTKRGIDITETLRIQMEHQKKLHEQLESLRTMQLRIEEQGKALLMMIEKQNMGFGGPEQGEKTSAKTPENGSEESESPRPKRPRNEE
Briefly: EMSA; 4 ug protein, 10 fmol probe; EMSA as described by Sun et al. (2016); buffer, salt, pH and temperature not given; 4 ug MBP-PHL4, 10 fmol biotin probe. As to conditions: protein: recombinant; tags: N-terminal MBP; C-terminal 6xHis; chain copies: 2; label: biotin (on F strand); blunt.

In series [2] the target is T1, MBP-PHL4-His. Put plainly: competition; unlabeled probe at 200:1, 800:1 and 1200:1 molar excess over labeled probe; EMSA as described by Sun et al. (2016); buffer, salt, pH and temperature not given; 4 ug MBP-PHL4, 10 fmol biotin probe. As to conditions: protein: recombinant; tags: N-terminal MBP; C-terminal 6xHis; chain copies: 2; blunt.

B1: 2xP1BS probe (dsDNA)
DNA 1: ATTAACGAATATTCCGTACAATTAACGAATATTCCGTACA
DNA 2: TGTACGGAATATTCGTTAATTGTACGGAATATTCGTTAAT
As for B1, the binding result with MBP-PHL4-His [1] is “binds”.

B2: 2xP1BS unlabeled competitor (dsDNA)
DNA 1: ATTAACGAATATTCCGTACAATTAACGAATATTCCGTACA
DNA 2: TGTACGGAATATTCGTTAATTGTACGGAATATTCGTTAAT
Consider B2, for which the binding result with MBP-PHL4-His [2] was “binds”.
